This note sets out measurements from publication PMC5314460 (Structure (London, England : 1993), 2017).

Test in all cases: pull-down
The target of one assay is T1, Enp1 (yeast, UniProt P38333 1-483).
T1 sequence (looked up): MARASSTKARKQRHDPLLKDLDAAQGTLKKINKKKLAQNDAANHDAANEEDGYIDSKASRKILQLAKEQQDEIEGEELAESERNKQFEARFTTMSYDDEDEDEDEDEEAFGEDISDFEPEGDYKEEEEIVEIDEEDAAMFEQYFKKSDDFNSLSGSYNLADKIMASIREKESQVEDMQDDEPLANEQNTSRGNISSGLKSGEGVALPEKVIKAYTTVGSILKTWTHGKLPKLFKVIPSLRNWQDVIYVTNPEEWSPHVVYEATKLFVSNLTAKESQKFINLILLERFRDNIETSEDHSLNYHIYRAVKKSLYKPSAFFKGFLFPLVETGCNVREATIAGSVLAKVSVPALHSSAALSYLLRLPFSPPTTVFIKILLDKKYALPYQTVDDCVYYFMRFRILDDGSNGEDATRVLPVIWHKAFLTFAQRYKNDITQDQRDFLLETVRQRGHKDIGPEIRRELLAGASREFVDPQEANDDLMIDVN

Assay [1] concerns the target T2, Enp1-TPR (residues 154-483) (yeast, UniProt P38333 154-483).
T2 sequence (looked up): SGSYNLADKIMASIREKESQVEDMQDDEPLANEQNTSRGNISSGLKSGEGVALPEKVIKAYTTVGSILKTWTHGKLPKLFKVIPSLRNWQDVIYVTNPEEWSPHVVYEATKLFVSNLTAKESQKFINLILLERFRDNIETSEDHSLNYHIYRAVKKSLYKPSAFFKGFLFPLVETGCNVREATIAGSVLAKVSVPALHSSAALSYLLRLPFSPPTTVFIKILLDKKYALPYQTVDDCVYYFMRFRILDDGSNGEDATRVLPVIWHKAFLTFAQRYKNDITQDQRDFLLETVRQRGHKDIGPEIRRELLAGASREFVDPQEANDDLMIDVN

A further assay deals with T3, SUMO-Rps3 (yeast, UniProt P05750 1-240).
T3 sequence: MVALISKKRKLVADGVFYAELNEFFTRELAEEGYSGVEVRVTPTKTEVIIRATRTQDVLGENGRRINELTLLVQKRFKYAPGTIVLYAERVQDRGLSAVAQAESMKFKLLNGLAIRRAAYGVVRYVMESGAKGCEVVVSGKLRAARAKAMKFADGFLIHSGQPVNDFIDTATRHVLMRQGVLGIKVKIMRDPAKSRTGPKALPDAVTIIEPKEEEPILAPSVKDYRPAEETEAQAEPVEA

B1: Ltv1-M (residues 185-394) (domain or fragment, yeast, UniProt P34078 185-394, looked up)
chain: DDVVVEDISKKTQLQGDNYGEEEKEDDIFAQLLGSGEAKDEDEFEDEFDEWDIDNVENFEDENYVKEMAQFDNIENLEDLENIDYQADVRRFQKDNSILEKHNSDDEFSNAGLDSVNPSEEEDVLGELPSIQDKSKTGKKKRKSRQKKGAMSDVSGFSMSSSAIARTETMTVLDDQYDQIINGYENYEEELEEDEEQNYQPFDMSAERSD
For the molecule B1, the binding result (in the assay with Enp1; in assay [1]; in the assay with SUMO-Rps3) was “binds” throughout.

B2: Ltv1-N (N-terminal 180 residues) (domain or fragment, yeast, UniProt P34078 1-180, looked up)
chain: MSKKFSSKNSQRYVVVHRPHDDPSFYDTDASAHVLVPVSNPNKTSPEADLRKKDVSSTKPKGRRAHVGEAALYGINFDDSEYDYTQHLKPIGLDPENSIFIASKGNEQKVEKKNIEDLFIEPKYRRDEIEKDDALPVFQRGMAKPEYLLHQQDTTDEIRGFKPDMNPALREVLEALEDEA
As for B2, the binding result in the assay with SUMO-Rps3 is given as “binds”.
